Assay results published in US20220133913A1 (KOREA BASIC SCIENCE INSTITUTE, published 2022).
Substitutions are numbered along the chain they refer to.

B1: VHH-22 (VHH)
VHH: QVQLVESGGGSVQAGGSLRLSCVVSGYTCSVYDMIWYRQPPGKEREFVSLINSNGRTTYADSVKGRFTISQNNAKNTVYLQMNSLKPEDTAMYYCHAACYSPSRLNYWGQGTLVTVSS
notes: also called clone 22
B2: VHH-16 (VHH)
VHH: DVQLVESGGGSVQPGGSLRLSCAASGYTVENSCMAWFRQAPGKEREVVATIVTNNATGTFYADSVKGRFTVSQDNAKNTLNLQMNSLEPEDTAMYYCAADTKWIVCSRGYRYTPNWANQFKYWGQGTQVTVSS
notes: also called clone 16
B3: VHH-20 (VHH)
VHH: B2 VHH with E30D, G58S, Q73H, S86T, Q119H, K121N, Q128L
notes: also called clone 20
B4: VHH-12 (VHH)
VHH: EVQLVESGGGSVQPGESLRLSCVASGYTVSSSCMAWFRQAPGKEREVVATIVVTSDTTSTFYADSVKGRFTISPDNAKNTLNLQMNSLEPSDTAMYYCAADRKWNVCSRGYRYTPNWANQFTFWGQGTQVTVSS
notes: also called clone 12
B5: VHH-11 (VHH)
VHH: B4 VHH with E1D, Q129L
notes: also called clone 11
B6: VHH-13 (VHH)
VHH: B4 VHH with E1H
notes: also called clone 13
B7: VHH-17 (VHH)
VHH: B4 VHH with E1D, Q129L
notes: also called clone 17
B8: VHH-15 (VHH)
VHH: B4 VHH with S91P
notes: also called clone 15
B9: single-domain antibody VHH-22 containing His6 tag (VHH)
VHH: B1 VHH
notes: also called Nanobody #22
B10: single-domain antibody VHH-25 containing His6 tag (VHH)
VHH: B1 VHH with Q1E, L113Q
notes: also called Nanobody #25; pALT-Avb3 VHH25 product
B11: single-domain antibody VHH-13 containing His6 tag (VHH)
VHH: B4 VHH with E1H
notes: also called Nanobody #13
B12: clone 10 (VHH)
VHH: B1 VHH with Q1E, L113Q
B13: clone 33 (VHH)
VHH: B1 VHH with Q1E, L113Q
B14: clone 26 (VHH)
VHH: B1 VHH
B15: clone 34 (VHH)
VHH: B2 VHH
B16: clone 8 (VHH)
VHH: B2 VHH
B17: clone 36 (VHH)
VHH: B2 VHH
B18: clone 30 (VHH)
VHH: B2 VHH with E30D, G58S, Q73H, S86T, Q119H, K121N, Q128L
B19: clone 40 (VHH)
VHH: B2 VHH with E30D, G58S, Q73H, S86T, Q119H, K121N, Q128L
B20: clone 38 (VHH)
VHH: B2 VHH with E30D, G58S, Q73H, S86T, Q119H, K121N, Q128L
B21: clone 19 (VHH)
VHH: B4 VHH
B22: clone 28 (VHH)
VHH: B4 VHH
B23: clone 32 (VHH)
VHH: B4 VHH
B24: clone 21 (VHH)
VHH: B4 VHH with E1H
B25: clone 14 (VHH)
VHH: B4 VHH with E1D, Q129L
B26: clone 3 (VHH)
VHH: B4 VHH with S91P
B27: clone 2 (VHH)
VHH: B4 VHH with S91P
B28: clone 29 (VHH)
VHH: B4 VHH with E1D, Q129L
B29: clone 39 (VHH)
VHH: B4 VHH with S91P
B30: clone 4 (VHH)
VHH: B4 VHH with S91P
B31: clone 27 (VHH)
VHH: B4 VHH with E1H
B32: clone 37 (VHH)
VHH: HVQLVESGGGSVQTGGSLRLSCAASGYTSSTVYMAWFRQTPGKQREGVAAIYTGGGPTYYADSVKGRFTISQDNAKNTVYLQMNTLKPEDTAMYYCAADRYVYRLVTNWYRPSFYTYWGQGTQVTVSS

Target: T1, human αvβ3 integrin ITGAVB3 (human, UniProt P06756 31-992; P05106 27-718, limits assumed)
T1 construct: Recombinant heterodimer used as immunogen, ELISA coating and SPR ligand; also called A5B3; A5b3
T1 sequence (P06756 31-992 limits assumed, chain 1 of 2): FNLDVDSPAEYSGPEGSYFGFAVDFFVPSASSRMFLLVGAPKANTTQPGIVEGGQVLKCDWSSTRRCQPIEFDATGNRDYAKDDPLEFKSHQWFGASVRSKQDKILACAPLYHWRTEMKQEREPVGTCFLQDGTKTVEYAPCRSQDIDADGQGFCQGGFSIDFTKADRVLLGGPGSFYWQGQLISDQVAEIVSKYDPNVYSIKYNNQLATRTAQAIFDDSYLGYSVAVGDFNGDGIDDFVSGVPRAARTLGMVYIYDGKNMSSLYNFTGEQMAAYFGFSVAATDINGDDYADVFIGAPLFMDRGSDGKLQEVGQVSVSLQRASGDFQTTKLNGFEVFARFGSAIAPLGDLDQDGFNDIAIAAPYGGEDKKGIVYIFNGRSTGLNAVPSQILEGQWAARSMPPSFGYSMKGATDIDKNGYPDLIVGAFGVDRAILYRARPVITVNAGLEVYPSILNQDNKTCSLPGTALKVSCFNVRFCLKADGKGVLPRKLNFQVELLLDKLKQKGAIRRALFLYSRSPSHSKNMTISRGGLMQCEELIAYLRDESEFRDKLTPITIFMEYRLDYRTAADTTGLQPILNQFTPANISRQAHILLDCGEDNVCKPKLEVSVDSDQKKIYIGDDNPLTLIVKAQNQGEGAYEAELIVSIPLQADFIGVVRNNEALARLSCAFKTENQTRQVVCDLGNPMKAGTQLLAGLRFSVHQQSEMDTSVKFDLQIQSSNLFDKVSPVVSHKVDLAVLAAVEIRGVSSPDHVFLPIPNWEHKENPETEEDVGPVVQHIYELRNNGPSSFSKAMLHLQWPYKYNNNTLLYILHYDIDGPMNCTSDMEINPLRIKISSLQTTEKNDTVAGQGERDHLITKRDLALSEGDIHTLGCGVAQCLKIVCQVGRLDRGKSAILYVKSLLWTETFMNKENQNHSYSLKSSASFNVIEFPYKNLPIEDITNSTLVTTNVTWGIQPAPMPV
T1 sequence (P05106 27-718 limits assumed, chain 2 of 2): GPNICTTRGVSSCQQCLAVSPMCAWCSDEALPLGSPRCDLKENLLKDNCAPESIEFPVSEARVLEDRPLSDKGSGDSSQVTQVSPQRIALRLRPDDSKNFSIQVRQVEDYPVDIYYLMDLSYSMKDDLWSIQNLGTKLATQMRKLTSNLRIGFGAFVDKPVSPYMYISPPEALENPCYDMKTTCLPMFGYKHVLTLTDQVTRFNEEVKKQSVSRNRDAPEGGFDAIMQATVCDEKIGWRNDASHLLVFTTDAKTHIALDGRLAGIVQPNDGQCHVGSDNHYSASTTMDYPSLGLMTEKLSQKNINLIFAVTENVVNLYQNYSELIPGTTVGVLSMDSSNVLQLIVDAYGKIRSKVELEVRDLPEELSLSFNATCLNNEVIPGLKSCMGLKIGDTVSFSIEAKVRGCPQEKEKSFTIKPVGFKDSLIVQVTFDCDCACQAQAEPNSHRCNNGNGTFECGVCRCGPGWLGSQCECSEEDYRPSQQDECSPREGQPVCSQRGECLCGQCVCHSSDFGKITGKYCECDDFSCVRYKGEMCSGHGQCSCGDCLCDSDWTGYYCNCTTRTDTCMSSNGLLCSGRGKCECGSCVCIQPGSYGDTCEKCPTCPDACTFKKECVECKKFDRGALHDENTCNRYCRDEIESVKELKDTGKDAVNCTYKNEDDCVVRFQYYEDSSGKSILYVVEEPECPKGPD
Assay: ELISA of soluble VHH (TG1 lysate), induced at 30 C, coated ITGAVB3

Row | OD490 | Binder
1 | 1.98 | B1
2 | 1.75 | B2
3 | 0.129 | B3
4 | 1.87 | B4
5 | 0.334 | B5
6 | 2 | B6
7 | 0.243 | B7
8 | 0.179 | B8

Target: T1, human αvβ3 integrin ITGAVB3
Assay: SPR, αvβ3 integrin immobilised on CMDH chip, nanobody as analyte
Description: Specifically, a CMDH chip (Carboxymethyl Dextran Hydrogel Surface Sensor Chip, Reichert Technologies) coated with Dextran was mounted on an SPR equipment (Reichert SR7500DC system) to perform immobilization of αᵥβ₃ integrin antigen. Then, an analysis of the affinity of the selected antibody based on the concentration was performed.

Row | Kd [nM] | koff [s⁻¹] | kon [M⁻¹ s⁻¹] | Binder
9 | 15.5 | 0.000974 | 62700 | B9
10 | 8.83 | 0.000871 | 98600 | B10
11 | 9.38 | 0.00108 | 115000 | B11

Target: T1, human αvβ3 integrin ITGAVB3
Assay: ELISA of soluble VHH, induced at 30 C; coating not given

Row | OD490 | Binder
12 | 1.21 | B1
13 | 2.02 | B2
14 | 0.108 | B3
15 | 1.84 | B4
16 | 0.148 | B5
17 | 0.161 | B6
18 | 0.118 | B7
19 | 0.146 | B8

Target: T1, human αvβ3 integrin ITGAVB3
Assay: ELISA of soluble VHH (TG1 lysate), induced at 37 C, coated ITGAVB3

Row | OD490 | Binder
20 | 1.98 | B1
21 | 1.68 | B2
22 | 0.144 | B3
23 | 1.93 | B4
24 | 0.64 | B5
25 | 2 | B6
26 | 0.191 | B7
27 | 0.132 | B8

Target: T1, human αvβ3 integrin ITGAVB3
Assay: phage ELISA, coated ITGAVB3, anti-M13-HRP, 490 nm
Description: Further, in order to perform phage ELISA, 2.5 μg/mL to […] of a target protein and a control protein were coated at 4 degrees C. using a coating buffer, and the wells were washed 3 times with 200 μL washing buffer per well. The wells were blocked with 200 μL PBS-M for two hours at room temperature. The blocking buffer was removed and the plate was washed 6 times with the washing solution. Thereafter, 100 μL of phage solution was added to the washing buffer per well and incubation was executed at room temperature for 1 to 2 hours. Then, washing was performed 6 times with washing buffer. HRP-binding anti-M13 antibody (GE healthcare) was diluted with 1:5,000 blocking buffer. 100 μL of diluted conjugate was added onto each well, and incubation was performed at room temperature for 1 hour, and washing was carried out 6 times with washing buffer. The HRP substrate solution was prepared as follows: A stock solution of OPD was prepared by dissolving 22 mg OPD (Sigma) in 100 mL of […] sodium citrate (pH 4.0), and 36 μL 30% H₂O₂ was added to 21 mL of OPL stock solution immediately before the detection step. 100 μL of substrate solution was added to each well and incubation was performed for 30 minutes at room temperature. Plates were analyzed using a micro plate reader set at 490 nm.

Row | OD490 | Binder
28 | 2.14 | B12
29 | 1.86 | B13
30 | 2.04 | B1
31 | 2.01 | B14
32 | 2.07 | B2
33 | 2.01 | B15
34 | 1.95 | B16
35 | 1.98 | B17
36 | 1.97 | B18
37 | 2.04 | B19
38 | 2.12 | B20
39 | 1.98 | B3
40 | 2.06 | B4
41 | 1.94 | B21
42 | 1.94 | B22
43 | 1.88 | B23
44 | 1.95 | B24
45 | 1.93 | B25
46 | 1.88 | B26
47 | 2.07 | B5
48 | 2.01 | B6
49 | 2.02 | B27
50 | 2.04 | B28
51 | 1.8 | B29
52 | 2.16 | B30
53 | 1.81 | B7
54 | 1.97 | B31
55 | 1.97 | B8
56 | 2.09 | B32

Target: T1, human αvβ3 integrin ITGAVB3
Assay: ELISA of soluble VHH, induced at 37 C; coating not given

Row | OD490 | Binder
57 | 0.386 | B1
58 | 1.02 | B2
59 | 0.111 | B3
60 | 1.23 | B4
61 | 0.119 | B5
62 | 0.187 | B6
63 | 0.125 | B7
64 | 0.121 | B8
